These are literature values, as cited in PMC9797105.

pKd: −log10 of the molar value.

The target of one data set is TARP γ-8 PBM (UniProt Q8WXS5).
Data set [1] has as its target TRP channel PBM (Drosophila melanogaster) (UniProt P19334).

Chain of UniProt Q8WXS5 (Q8WXS5 whole entry, looked up): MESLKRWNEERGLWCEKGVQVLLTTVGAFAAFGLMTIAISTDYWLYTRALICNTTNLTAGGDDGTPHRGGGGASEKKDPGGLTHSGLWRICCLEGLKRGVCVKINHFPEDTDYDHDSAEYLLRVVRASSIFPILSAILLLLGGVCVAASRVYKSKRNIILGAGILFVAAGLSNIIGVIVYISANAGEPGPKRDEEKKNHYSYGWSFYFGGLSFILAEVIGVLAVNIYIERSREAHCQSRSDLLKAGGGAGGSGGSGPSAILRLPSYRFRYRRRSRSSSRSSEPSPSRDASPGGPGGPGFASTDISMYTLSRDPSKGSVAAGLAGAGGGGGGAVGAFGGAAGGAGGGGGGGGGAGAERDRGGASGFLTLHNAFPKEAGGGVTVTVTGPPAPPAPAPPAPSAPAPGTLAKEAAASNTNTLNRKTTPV

In general, pKd refers to the Kd on a negative log10 scale, so that one unit is a factor of ten. Turning to PSD-95 PDZ2 (from UniProt P78352), the pKd with TARP γ-8 PBM is 4.40.

As for INAD PDZ3 (from UniProt Q24008), in data set [1], the pKd is 6.89.
